Patent US20110145941A1 (LAY LINE GENOMICS S P A, published 2011)
Residue numbers refer to the chain shown, from its start.

B1: muMNACEP (antibody, V domains shown)
VH: EVKLMESGGGLVQPGGSLKLSCAASGFTFSTYTMSWARQTPEKRLEWVAYISKGGGSTYYPDTVKGRFTISRDNAKNTLYLQMSSLKSEDTALYYCARGAMYGNDFFYPMDYWGQQTSVTVSS
VL: DIVLSQSPAIMSASLGEEITLTCSASSSVSYMHWYQQKSGTSPKLLITTTSNLASGVPSRFSGSGSGTFYSLTISSVEAEDAADYYCHQWSSYPWTFGGGTKLEIK
notes: Murine monoclonal antibody as disclosed in EP1181318; also called murine antibody MNAC13; MNAC13
B2: ChimMNAC13 (antibody, V domains shown)
VH: B1 VH
VL: B1 VL
notes: Corresponds to muMNACEP but has human constant regions instead of mouse constant regions; also called chimNINAC13; mVHEP/mVLEP
B3: BXhVH3VL3 (antibody, human IgG1, V domains shown)
VH: EVQLLESGGGLVQPGGSLRLSCAASGFTFSTYTMSWVRQAPGKRLEWVAYISKGGGSTYYPDTVKGRFTISRDNSKNTLYLQMNSLRAEDTAVYYCARGAMYGNDFFYPMDYWGQGTTVTVSS
VL: QIVLTQSPATLSLSPGERATLSCSASSSVSYMHWYQQKPGQSPRLLIYTTSNLASGIPSRFSGSGSGTFYTLTISSLEPEDFAVYYCHQWSSYPWTFGGGTKLEIK
notes: Human IgG1 constant regions (IgG1 expression vectors); also called hVH3/hVL3
B4: BXhVH5VL3 (antibody, human IgG1, V domains shown)
VH: B3 VH with Q3K, A40T
VL: B3 VL
notes: Human IgG1 constant regions (IgG1 expression vectors); also called hVH5/hVL3
B5: BXhVH1VL8 (antibody, human IgG1, V domains shown)
VH: B3 VH with Q3K, A40T, R44G, R98K
VL: B3 VL with R18E, P39S, Q41T, F82A, V84D
notes: Human IgG1 constant regions (IgG1 expression vectors); COS-7 supernatant; also called hVH1/hVL8
B6: HuMNACWOv (antibody, V domains shown)
VH: B3 VH with V37A, R44G, T91S, T118L
VL: DIVLTQSPSSLSASVGDRVTITCSASSSVSYMHWYQQKPGQAPKLLIYTTSNLASGVPSRFSGSGSGTDYTLTISSLQPEDVATYYCHQWSSYPWTFGGGTKVEIK
notes: Variant of HuMNACWO whose heavy chain CDR3 is replaced with that of muMNACEP; also called hVHWOv/hVLWO; HuVHWOv/HuVLWO
B7: BXhVH3VL8 (antibody, human IgG1, V domains shown)
VH: B3 VH
VL: B3 VL with R18E, P39S, Q41T, F82A, V84D
notes: Human IgG1 constant regions (IgG1 expression vectors); COS-7 supernatant; also called hVH3/hVL8
B8: BXhVH5VL4 (antibody, human IgG1, V domains shown)
VH: B3 VH with Q3K, A40T
VL: B3 VL with F69D, Y70F, F82A, V84D
notes: Human IgG1 constant regions (IgG1 expression vectors); COS-7 supernatant; also called hVH5/hVL4
B9: BXhVH2VL4 (antibody, human IgG1, V domains shown)
VH: B3 VH with A40T, R98K
VL: B3 VL with F69D, Y70F, F82A, V84D
notes: Human IgG1 constant regions (IgG1 expression vectors); COS-7 supernatant; also called hVH2/hVL4
B10: BXhVH3VL6 (antibody, human IgG1, V domains shown)
VH: B3 VH
VL: B3 VL with Q1E, R18E, F82A, V84D
notes: Human IgG1 constant regions (IgG1 expression vectors); COS-7 supernatant; also called hVH3/hVL6
B11: BXhVH3VL7 (antibody, human IgG1, V domains shown)
VH: B3 VH
VL: B3 VL with F82A, V84D
notes: Human IgG1 constant regions (IgG1 expression vectors); COS-7 supernatant; also called hVH3/hVL7
B12: BXhVH5VL7 (antibody, human IgG1, V domains shown)
VH: B3 VH with Q3K, A40T
VL: B3 VL with F82A, V84D
notes: Human IgG1 constant regions (IgG1 expression vectors); COS-7 supernatant; also called hVH5/hVL7
B13: BXhVH3VL4 (antibody, human IgG1, V domains shown)
VH: B3 VH
VL: B3 VL with F69D, Y70F, F82A, V84D
notes: Human IgG1 constant regions (IgG1 expression vectors); COS-7 supernatant; also called hVH3/hVL4
B14: BXhVH2VL1 (antibody, human IgG1, V domains shown)
VH: B3 VH with A40T, R98K
VL: B3 VL with Q1E, S42A, S59A, F69D, Y70F, G99Q
notes: Human IgG1 constant regions (IgG1 expression vectors); COS-7 supernatant; also called hVH2/hVL1
B15: BXhVH5VL5 (antibody, human IgG1, V domains shown)
VH: B3 VH with Q3K, A40T
VL: B3 VL with F69D, F82A, V84D, G99Q
notes: Human IgG1 constant regions (IgG1 expression vectors); COS-7 supernatant; also called hVH5/hVL5
B16: BXhVH2VL3 (antibody, human IgG1, V domains shown)
VH: B3 VH with A40T, R98K
VL: B3 VL
notes: Human IgG1 constant regions (IgG1 expression vectors); COS-7 supernatant; also called hVH2/hVL3
B17: BXhVH2VL6 (antibody, human IgG1, V domains shown)
VH: B3 VH with A40T, R98K
VL: B3 VL with Q1E, R18E, F82A, V84D
notes: Human IgG1 constant regions (IgG1 expression vectors); COS-7 supernatant; also called hVH2/hVL6
B18: BXhVH5VL2 (antibody, human IgG1, V domains shown)
VH: B3 VH with Q3K, A40T
VL: B3 VL with Q1E, F69D, Y70F, F82A, V84D, G99Q
notes: Human IgG1 constant regions (IgG1 expression vectors); COS-7 supernatant; also called hVH5/hVL2
B19: BXhVH3VL5 (antibody, human IgG1, V domains shown)
VH: B3 VH
VL: B3 VL with F69D, F82A, V84D, G99Q
notes: Human IgG1 constant regions (IgG1 expression vectors); COS-7 supernatant; also called hVH3/hVL5
B20: BXhVH2VL8 (antibody, human IgG1, V domains shown)
VH: B3 VH with A40T, R98K
VL: B3 VL with R18E, P39S, Q41T, F82A, V84D
notes: Human IgG1 constant regions (IgG1 expression vectors); COS-7 supernatant; also called hVH2/hVL8
B21: BXhVH3VL2 (antibody, human IgG1, V domains shown)
VH: B3 VH
VL: B3 VL with Q1E, F69D, Y70F, F82A, V84D, G99Q
notes: Human IgG1 constant regions (IgG1 expression vectors); COS-7 supernatant; also called hVH3/hVL2
B22: BXhVH5VL6 (antibody, human IgG1, V domains shown)
VH: B3 VH with Q3K, A40T
VL: B3 VL with Q1E, R18E, F82A, V84D
notes: Human IgG1 constant regions (IgG1 expression vectors); COS-7 supernatant; also called hVH5/hVL6
B23: BXhVH3VL1 (antibody, human IgG1, V domains shown)
VH: B3 VH
VL: B3 VL with Q1E, S42A, S59A, F69D, Y70F, G99Q
notes: Human IgG1 constant regions (IgG1 expression vectors); COS-7 supernatant; also called hVH3/hVL1
B24: BXhVH2VL2 (antibody, human IgG1, V domains shown)
VH: B3 VH with A40T, R98K
VL: B3 VL with Q1E, F69D, Y70F, F82A, V84D, G99Q
notes: Human IgG1 constant regions (IgG1 expression vectors); COS-7 supernatant; also called hVH2/hVL2
B25: BXhVH2VL5 (antibody, human IgG1, V domains shown)
VH: B3 VH with A40T, R98K
VL: B3 VL with F69D, F82A, V84D, G99Q
notes: Human IgG1 constant regions (IgG1 expression vectors); COS-7 supernatant; also called hVH2/hVL5
B26: HuMNACWO (antibody, V domains shown)
VH: B3 VH with V37A, R44G, T91S, Y102F, Y108F, Y112R, T118L
VL: B6 VL
notes: Prior art humanised antibody; also called humanised antibody MNAC13 disclosed in WO 05/061540; HuVHWO/HuVLWO

molecular target: T1, human TrkA receptor on the cell surface (human, UniProt P04629 33-796); test: cell-based or functional assay
T1 sequence (P04629 33-796): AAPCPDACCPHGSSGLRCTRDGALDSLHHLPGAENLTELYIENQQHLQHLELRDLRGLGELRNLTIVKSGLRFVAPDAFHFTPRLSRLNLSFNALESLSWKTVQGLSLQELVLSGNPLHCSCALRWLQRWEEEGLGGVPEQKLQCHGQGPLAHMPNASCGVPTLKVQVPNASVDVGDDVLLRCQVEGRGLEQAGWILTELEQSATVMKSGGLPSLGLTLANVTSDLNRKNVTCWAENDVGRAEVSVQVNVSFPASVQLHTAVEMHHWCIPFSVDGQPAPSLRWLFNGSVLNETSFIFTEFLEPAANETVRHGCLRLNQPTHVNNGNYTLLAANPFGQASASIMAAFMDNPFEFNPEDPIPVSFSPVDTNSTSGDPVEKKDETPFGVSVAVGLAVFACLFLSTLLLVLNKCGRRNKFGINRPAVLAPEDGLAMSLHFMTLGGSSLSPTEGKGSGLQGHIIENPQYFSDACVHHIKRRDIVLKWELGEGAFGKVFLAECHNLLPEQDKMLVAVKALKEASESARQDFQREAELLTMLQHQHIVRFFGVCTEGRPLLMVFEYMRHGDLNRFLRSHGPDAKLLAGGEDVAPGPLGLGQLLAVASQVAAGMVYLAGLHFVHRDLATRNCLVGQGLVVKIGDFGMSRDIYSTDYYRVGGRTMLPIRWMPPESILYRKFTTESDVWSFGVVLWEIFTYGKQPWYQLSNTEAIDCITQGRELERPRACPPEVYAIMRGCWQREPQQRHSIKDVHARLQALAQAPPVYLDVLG

Row | Proliferation assay on TF1 cells IC50 (µg/ml), Mean [µg/mL] | Proliferation assay on TF1 cells IC50 (µg/ml), EXP-1 [µg/mL] | Proliferation assay on TF1 cells IC50 (µg/ml), EXP-2 [µg/mL] | Molecule
1 | 0.54 |  |  | B1
2 |  | 0.06 | 0.58 | B2
3 |  | 0.41 | 2.38 | B3
4 |  | 1.4 | 1.21 | B4

molecular target: T1, human TrkA receptor on the cell surface; test: flow cytometry on TF-1 cells, 4 µg/ml; design: Geo Mean Fluorescence: reference not given here

Row | Fold Increase [fold] | Geo Mean Fluorescence | Molecule
5 | 3.2 | 11 | B2
6 | 1.5 | 5.2 | B5
7 | 2.6 | 8.9 | B6
8 | 1.9 | 6.5 | B7
9 | 2.6 | 9.1 | B8
10 | 3.6 | 12.6 | B3
11 | 1.8 | 6.1 | B9
12 | 1.8 | 6.4 | B10
13 | 2 | 7.1 | B11
14 | 2.5 | 8.6 | B12
15 | 2 | 7.1 | B13
16 | 2.6 | 9.2 | B14
17 | 2.4 | 8.3 | B15
18 | 3.1 | 10.8 | B16
19 | 1.8 | 6.4 | B17
20 | 2.5 | 8.6 | B18
21 | 2 | 6.9 | B19
22 | 1.9 | 6.5 | B20
23 | 2 | 7.1 | B21
24 | 2.6 | 9.1 | B22
25 | 2.5 | 8.6 | B23
26 | 3.9 | 13.7 | B4
27 | 1.8 | 6.4 | B24
28 | 1.8 | 6.4 | B25

molecular target: T2, TrkA-IgG (UniProt P04629 33-423, limits assumed); test: SPR (BIACORE 2000), TrkA-IgG immobilised on CM-5 chip, 'separated 1:1' fit
T2 construct: also called specific antigen TrkA-IgG; not shown: IgG part of the fusion
T2 sequence (P04629 33-423 limits assumed): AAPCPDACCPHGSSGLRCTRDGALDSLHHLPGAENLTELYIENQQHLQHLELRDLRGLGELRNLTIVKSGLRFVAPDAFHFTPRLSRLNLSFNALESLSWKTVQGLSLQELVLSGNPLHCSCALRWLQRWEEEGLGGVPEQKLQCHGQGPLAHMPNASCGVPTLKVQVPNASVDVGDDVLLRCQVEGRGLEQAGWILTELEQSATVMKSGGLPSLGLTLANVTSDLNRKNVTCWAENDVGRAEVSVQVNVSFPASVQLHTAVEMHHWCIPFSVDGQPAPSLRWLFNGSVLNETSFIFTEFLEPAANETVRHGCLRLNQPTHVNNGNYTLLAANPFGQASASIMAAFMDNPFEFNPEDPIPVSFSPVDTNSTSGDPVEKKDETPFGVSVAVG
Description: Surface plasmon resonance analysis was used to measure the association and dissociation rate constants for binding kinetics of the different antibodies (murine, chimeric, 5 humanised variants) towards TrkA-IgG using BIACORE 2000 (Biacore AB, Uppsala, Sweden). TrkA-IgG was immobilised on a CM-5 sensor chip according to manufacturer's conditions, in a way to achieve an immobilization density of 1100 RU. Each antibody sample was analyzed in antibody concentration ranges of 20-0.63 μg/ml. Calculations from the sensograms were performed by using the BIA evaluation version 3 (1999) software.
Analysis of the individual sets of sensograms was performed with the BIA evaluation version 3 (1999) software. Among the different models tested to fit the kinetics data, the best fitting was obtained with the “separated 1:1” algorithm. In this model, only a defined range of the early association and dissociation curves was used for the calculation.

Row | Kd [nM] | koff [s⁻¹] | kon [M⁻¹ s⁻¹] | Molecule
29 | 0.25 | 0.000167 | 850000 | B1
30 | 0.151 |  |  | B2
31 | 2.48 | 0.00386 | 1.62e+06 | B6
32 | 1.45 | 0.000442 | 325000 | B3
33 | 0.662 | 0.000638 | 1e+06 | B4

molecular target: T2, TrkA-IgG; test: SPR (BIACORE 2000), TrkA-IgG immobilised on CM-5 chip, 'separated 1:1' fit; separate experiment

Row | Kd [nM] | koff [s⁻¹] | kon [M⁻¹ s⁻¹] | Molecule
34 | 41.8 | 0.0309 | 739000 | B26

molecular target: T1, human TrkA receptor on the cell surface; test: flow cytometry on TF-1 cells, control immunoglobulin

Row | Fold Increase [fold] | Geo Mean Fluorescence | Molecule
35 | 1 | 3.5 | Human IgG1 standard control (antibody)
